Values of other authors, collected in PMC9395234.

Target: C4BP (Homo sapiens) (UniProt P04003)
UniProt P04003, sequence (P04003 49-597, chain 1 of 2): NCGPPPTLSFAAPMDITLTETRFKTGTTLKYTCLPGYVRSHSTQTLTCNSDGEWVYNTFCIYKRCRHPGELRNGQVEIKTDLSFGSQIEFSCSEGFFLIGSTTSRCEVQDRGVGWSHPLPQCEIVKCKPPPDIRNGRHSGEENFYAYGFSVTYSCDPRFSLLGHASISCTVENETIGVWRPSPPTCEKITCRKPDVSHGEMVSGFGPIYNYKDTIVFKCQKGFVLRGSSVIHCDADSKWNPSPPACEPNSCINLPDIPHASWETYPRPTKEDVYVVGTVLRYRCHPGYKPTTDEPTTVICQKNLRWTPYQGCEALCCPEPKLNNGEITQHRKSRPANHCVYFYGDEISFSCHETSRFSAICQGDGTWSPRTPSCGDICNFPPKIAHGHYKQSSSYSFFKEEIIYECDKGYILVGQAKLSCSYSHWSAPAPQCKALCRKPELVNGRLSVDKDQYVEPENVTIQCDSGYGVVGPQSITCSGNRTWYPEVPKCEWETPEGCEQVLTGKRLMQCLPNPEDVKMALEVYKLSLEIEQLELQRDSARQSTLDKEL
UniProt P04003, sequence (P20851 18-252, chain 2 of 2, further chain): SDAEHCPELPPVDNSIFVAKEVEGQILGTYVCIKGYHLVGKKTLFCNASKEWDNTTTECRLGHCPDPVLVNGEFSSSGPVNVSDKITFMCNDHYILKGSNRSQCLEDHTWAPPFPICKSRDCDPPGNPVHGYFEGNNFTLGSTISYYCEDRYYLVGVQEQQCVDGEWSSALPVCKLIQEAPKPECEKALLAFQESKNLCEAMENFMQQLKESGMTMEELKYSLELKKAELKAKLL

## Protein S (from UniProt P07225)
  Kd: 0.1 nM
